Test results published in patent publication US20160264649A1.

How the values were obtained:
Experiment in all cases: cell-based or functional assay
[1] = target: HIV-1 Env of isolate MG RM-C-023 (HIV-1)
[2] = target: HIV-1 Env of isolate SF162 (HIV-1) (UniProt P19550)
[3] = target: HIV-1 Env of isolate MG RM-C-028 (HIV-1)
[4] = target: HIV-1 Env of isolate MG RM-C-027 (HIV-1)
[5] = target: HIV-1 Env of isolate MGRM-Chronic-B-003 (HIV-1)
[6] = target: HIV-1 Env of isolate MG RM-C-026 (HIV-1)
[7] = target: HIV-1 Env of isolate MGRM-Chronic-B-010 (HIV-1)
[8] = target: HIV-1 Env of isolate MGRM-Chronic-B-001 (HIV-1)
[9] = target: HIV-1 Env of isolate MGRM-Chronic-B-004 (HIV-1)
[10] = target: HIV-1 Env of isolate 93TH305 (HIV-1)
[11] = target: HIV-1 Env of isolate MGRM-Chronic-B-011 (HIV-1)
[12] = target: HIV-1 Env of isolate JRFL (HIV-1)
[13] = target: HIV-1 Env of isolate MGRM-Chronic-B-018 (HIV-1)
[14] = target: HIV-1 Env of isolate NL43 (HIV-1)
[15] = target: HIV-1 Env of isolate MG RM-C-020 (HIV-1)
[16] = target: HIV-1 Env of isolate MGRM-Chronic-B-020 (HIV-1)
[17] = target: HIV-1 Env of isolate MGRM-Chronic-B-024 (HIV-1)
[18] = target: HIV-1 Env of isolate THR0.18 (HIV-1)
[19] = target: HIV-1 Env of isolate 97ZA012 (HIV-1)
[20] = target: HIV-1 Env of isolate 92 BR 020 (HIV-1)
[21] = target: HIV-1 Env of isolate CAAN.A2 (HIV-1)
[22] = target: HIV-1 Env of isolate APV_13 (HIV-1)
[23] = target: HIV-1 Env of isolate 93MW959 (HIV-1)
[24] = target: HIV-1 Env of isolate TRJ04551.58 (HIV-1)
[25] = target: HIV-1 Env of isolate MG RM-C-024 (HIV-1)
[26] = target: HIV-1 Env of isolate MGRM-Chronic-B-012 (HIV-1)
[27] = target: HIV-1 Env of isolate 93IN905 (HIV-1)
[28] = target: HIV-1 Env of isolate MGRM-Chronic-B-008 (HIV-1)
[29] = target: HIV-1 Env of isolate JRCSF (HIV-1) (UniProt P20871)
[30] = target: HIV-1 Env of isolate TRO.11 (HIV-1)
[31] = target: HIV-1 Env of isolate 98IN022 (HIV-1)
[32] = target: HIV-1 Env of isolate MGRM-Chronic-B-023 (HIV-1)
[33] = target: HIV-1 Env of isolate 6535.3 (HIV-1)
[34] = target: HIV-1 Env of isolate SC422661.8 (HIV-1)
[35] = target: HIV-1 Env of isolate QH0692.42 (HIV-1)
[36] = target: HIV-1 Env of isolate APV_17 (HIV-1)
[37] = target: HIV-1 Env of isolate APV_6 (HIV-1)
[38] = target: HIV-1 Env of isolate PVO.4 (HIV-1)
[39] = target: HIV-1 Env of isolate MG RM-C-025 (HIV-1)
[40] = target: HIV-1 Env of isolate MGRM-Chronic-B-002 (HIV-1)
[41] = target: HIV-1 Env of isolate MGRM-Chronic-B-017 (HIV-1)
[42] = target: HIV-1 Env of isolate VLGCB3 (HIV-1)
[43] = target: HIV-1 Env of isolate MG RM-C-022 (HIV-1)

## PGT-123 monoclonal antibody (4858_P08)
[1]
  neutralization IC50: 0.011 µg/mL
[2]
  neutralization IC50: 0.005 µg/mL
[3]
  neutralization IC50: 0.402 µg/mL
[4]
  neutralization IC50: 0.02 µg/mL
[5]
  neutralization IC50: 0.008 µg/mL
[6]
  neutralization IC50: 0.001 µg/mL
[7]
  neutralization IC50: 0.009 µg/mL
[8]
  neutralization IC50: 0.15 µg/mL
[9]
  neutralization IC50: 0.008 µg/mL
[10]
  neutralization IC50: 0.008 µg/mL
[11]
  neutralization IC50: > 50 µg/mL
[12]
  neutralization IC50: 0.014 µg/mL
[13]
  neutralization IC50: > 50 µg/mL
[14]
  neutralization IC50: > 50 µg/mL
[15]
  neutralization IC50: > 50 µg/mL
[16]
  neutralization IC50: 0.005 µg/mL
[17]
  neutralization IC50: > 50 µg/mL
[18]
  neutralization IC50: > 50 µg/mL
[19]
  neutralization IC50: 0.002 µg/mL
[20]
  neutralization IC50: 0.008 µg/mL
[21]
  neutralization IC50: 0.015 µg/mL
[22]
  neutralization IC50: 0.138 µg/mL
[23]
  neutralization IC50: 0.011 µg/mL
[24]
  neutralization IC50: 16.9 µg/mL
[25]
  neutralization IC50: 0.195 µg/mL
[26]
  neutralization IC50: 0.227 µg/mL
[27]
  neutralization IC50: 0.004 µg/mL
[28]
  neutralization IC50: 0.01 µg/mL
[29]
  neutralization IC50: 0.046 µg/mL
[30]
  neutralization IC50: 0.008 µg/mL
[31]
  neutralization IC50: 0.011 µg/mL
[32]
  neutralization IC50: 0.055 µg/mL
[33]
  neutralization IC50: 0.004 µg/mL
[34]
  neutralization IC50: 0.039 µg/mL
[35]
  neutralization IC50: 0.158 µg/mL
[36]
  neutralization IC50: 0.114 µg/mL
[37]
  neutralization IC50: 0.023 µg/mL
[38]
  neutralization IC50: 0.105 µg/mL
[39]
  neutralization IC50: 13.3 µg/mL
[40]
  neutralization IC50: 0.234 µg/mL
[41]
  neutralization IC50: > 50 µg/mL
[42]
  neutralization IC50: 0.004 µg/mL
[43]
  neutralization IC50: 0.01 µg/mL
